The target in experiment [1] is T1, Human CD3 on Human CD3+ Jurkat cells (human, UniProt P07766 23-207).
T1 construct: whole, on cells; CD3 complex on cells; also called hCD3
As to the kind of experiment: cell binding hCD3, fold over background.

Another experiment addresses Human CD3εδ-Fc (human) (UniProt P04234). As to the kind of experiment: KD of scFv-Fc or IgG on human CD3εδ-Fc; instrument not given.
Experiment [2] has as its target T2, Cynomolgus CD3 on Cyno CD3+ Jurkat cells (cynomolgus, UniProt Q95LI5 22-198).
T2 construct: whole, on cells; CD3 on cells; also called cCD3
Kind of experiment: cell binding cCD3, fold over background.

Experiment [3] concerns the target Cyno CD3εδ-Fc (cynomolgus) (UniProt Q95LI8). As to the kind of experiment: KD of scFv-Fc or IgG on cyno CD3εδ-Fc; instrument not given.

Positions count from the first letter of the chain named.

Sequence of Cyno CD3εδ-Fc (cynomolgus) (chain, as listed by the source mutant, chain 1 of 2): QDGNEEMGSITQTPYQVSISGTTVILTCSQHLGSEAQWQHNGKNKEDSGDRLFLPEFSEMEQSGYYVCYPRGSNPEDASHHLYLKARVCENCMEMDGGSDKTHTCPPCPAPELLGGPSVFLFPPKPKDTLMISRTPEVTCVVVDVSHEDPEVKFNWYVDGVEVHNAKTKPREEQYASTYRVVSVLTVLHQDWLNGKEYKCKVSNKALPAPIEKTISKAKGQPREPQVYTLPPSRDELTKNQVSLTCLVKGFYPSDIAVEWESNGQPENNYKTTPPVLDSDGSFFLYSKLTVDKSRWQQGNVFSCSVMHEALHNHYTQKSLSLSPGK
Sequence of Cyno CD3εδ-Fc (cynomolgus) (Q95LI8 22-105, stated change not applied, chain 2 of 2): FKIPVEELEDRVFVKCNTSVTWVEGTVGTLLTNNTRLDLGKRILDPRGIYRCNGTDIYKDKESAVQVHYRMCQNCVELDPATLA
T2 sequence (Q95LI5 22-198): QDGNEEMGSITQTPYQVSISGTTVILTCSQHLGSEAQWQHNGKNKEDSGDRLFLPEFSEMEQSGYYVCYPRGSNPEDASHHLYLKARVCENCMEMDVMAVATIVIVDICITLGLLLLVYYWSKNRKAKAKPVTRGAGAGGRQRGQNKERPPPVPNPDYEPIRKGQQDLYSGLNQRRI
Sequence of Human CD3εδ-Fc (human) (chain, as listed by the source mutant, chain 1 of 2): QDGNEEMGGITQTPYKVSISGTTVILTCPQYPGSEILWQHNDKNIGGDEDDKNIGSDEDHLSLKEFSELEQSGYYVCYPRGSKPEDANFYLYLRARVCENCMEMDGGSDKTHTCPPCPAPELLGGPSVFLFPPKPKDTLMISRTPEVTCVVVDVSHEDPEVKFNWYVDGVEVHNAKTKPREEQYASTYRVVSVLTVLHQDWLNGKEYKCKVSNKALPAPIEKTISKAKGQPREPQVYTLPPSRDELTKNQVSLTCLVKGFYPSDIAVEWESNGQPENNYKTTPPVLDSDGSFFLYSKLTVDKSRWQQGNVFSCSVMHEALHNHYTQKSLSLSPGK
Sequence of Human CD3εδ-Fc (human) (P04234 22-105, stated change not applied, chain 2 of 2): as the sequence (Q95LI8 22-105, stated change not applied, chain 2 of 2) above, with V5I, K15N, V20I, T32S, N33D, N34I, A64T, N74S, L83V counted along it
T1 sequence (P07766 23-207): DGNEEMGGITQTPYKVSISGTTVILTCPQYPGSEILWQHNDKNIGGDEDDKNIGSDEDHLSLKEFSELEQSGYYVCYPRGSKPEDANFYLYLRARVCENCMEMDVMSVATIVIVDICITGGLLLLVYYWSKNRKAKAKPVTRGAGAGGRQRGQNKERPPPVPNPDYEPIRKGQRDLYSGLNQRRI

B1: ADI-46356 (antibody, V domains shown)
VH: QVQLVQSGAEVKKPGASVKVSCKASGFNIKDYYMHWVRQAPGQRLEWIGWIDLENANTVYDAKFQGRVTITRDTSASTAYMELSSLRSEDTAVYYCARDAYGRYFYDVWGQGTLVTVSS
VL: DIVMTQSPDSLAVSLGERATINCKSSQSLLNARTGKNYLAWYQQKPGQPPKLLIYWASTRESGVPDRFSGSGSGTDFTLTISSLQAEDVAVYYCVQSYFRRTFGGGTKVEIK
B1: the “Cell Binding hCD3 (FOB)” value in experiment [1] is 39 FOB. In the experiment with Human CD3εδ-Fc (human), this molecule displayed a Kd of 0.98 nM. Further, the “Cell Binding cCD3 (FOB)” value in experiment [2] was determined as 59 FOB.

B2: ADI-46372 (antibody, V domains shown)
VH: B1 VH with S77G, Y80H, L114P
VL: B1 VL
notes: also called Ab36
Take B2: the “Cell Binding hCD3 (FOB)” value in experiment [1] amounted to 14 FOB. In addition, the Kd in the experiment with Human CD3εδ-Fc (human) amounted to 1.1 nM. Also, the “Cell Binding cCD3 (FOB)” value in experiment [2] is 80 FOB.

B3: ADI-45969 (antibody, V domains shown)
VH: B1 VH with S84G
VL: B1 VL with V95A
notes: also called Ab5
With B3, in experiment [1], the “Cell Binding hCD3 (FOB)” value amounted to 28 FOB. For the same molecule, the Kd in the experiment with Human CD3εδ-Fc (human) stood at 0.06 nM; in experiment [3], 1.5 nM. In experiment [2], the “Cell Binding cCD3 (FOB)” value is 63 FOB.

B4: ADI-45961 (antibody, V domains shown)
VH: B1 VH
VL: B1 VL with G35R, K36R, A57G, V95K
notes: also called Ab24
As for B4, the “Cell Binding hCD3 (FOB)” value in experiment [1] stood at 18 FOB. Also, the Kd worked out at 0.23 nM with Human CD3εδ-Fc (human) and 3 nM in experiment [3]. In addition, the “Cell Binding cCD3 (FOB)” value in experiment [2] is 30 FOB.

B5: ADI-46360 (antibody, V domains shown)
VH: B1 VH with L45P, T91A, V93A
VL: B1 VL with K51E, V95T
notes: also called Ab44
Regarding B5, the “Cell Binding hCD3 (FOB)” value in experiment [1] came out at 40 FOB. The Kd in the experiment with Human CD3εδ-Fc (human) was found to be 0.97 nM. Moreover, the “Cell Binding cCD3 (FOB)” value in experiment [2] turned out to be 106 FOB.

B6: ADI-45964 (antibody, V domains shown)
VH: B1 VH with M34I
VL: B1 VL with V95A
notes: also called Ab27
In the case of B6, the “Cell Binding hCD3 (FOB)” value in experiment [1] was 56 FOB. Further, the Kd with Human CD3εδ-Fc (human) is 0.097 nM; in experiment [3] it was 2 nM. Also, in experiment [2], the “Cell Binding cCD3 (FOB)” value came to 63 FOB.

B7: ADI-46365 (antibody, V domains shown)
VH: B1 VH with S77G, Y80H, L114P
VL: B1 VL with V95T
notes: also called Ab49
As to B7, the “Cell Binding hCD3 (FOB)” value in experiment [1] amounted to 36 FOB. Also, the Kd with Human CD3εδ-Fc (human) was determined as 1 nM. In addition, in experiment [2], the “Cell Binding cCD3 (FOB)” value came out at 84 FOB.

B8: ADI-46381 (antibody, V domains shown)
VH: B1 VH with A62T
VL: B1 VL with S25T, S28G, G35N
notes: also called Ab43
For B8, the “Cell Binding hCD3 (FOB)” value in experiment [1] was 71 FOB. In the experiment with Human CD3εδ-Fc (human), this molecule registered a Kd of 0.72 nM. The “Cell Binding cCD3 (FOB)” value in experiment [2] was determined as 174 FOB.

B9: ADI-46375 (antibody, V domains shown)
VH: B1 VH
VL: B1 VL with G35R, V95T
notes: also called Ab38
Regarding B9, in experiment [1], the “Cell Binding hCD3 (FOB)” value stood at 48 FOB. Also, the Kd with Human CD3εδ-Fc (human) came out at 0.86 nM. Also, the “Cell Binding cCD3 (FOB)” value in experiment [2] turned out to be 40 FOB.

B10: ADI-46370 (antibody, V domains shown)
VH: B1 VH with A62H
VL: B1 VL
notes: also called Ab34
Take B10: the “Cell Binding hCD3 (FOB)” value in experiment [1] came out at 40 FOB. This molecule also showed a Kd with Human CD3εδ-Fc (human) of 1 nM. For the same molecule, the “Cell Binding cCD3 (FOB)” value in experiment [2] was found to be 46 FOB.

B11: ADI-46361 (antibody, V domains shown)
VH: B1 VH with I29N
VL: B1 VL with V95T
notes: also called Ab45
For B11, the “Cell Binding hCD3 (FOB)” value in experiment [1] was 23 FOB. In the experiment with Human CD3εδ-Fc (human), this molecule yielded a Kd of 0.93 nM. Further, the “Cell Binding cCD3 (FOB)” value in experiment [2] came out at 84 FOB.

B12: ADI-46358 (antibody, V domains shown)
VH: B1 VH with S85N
VL: B1 VL with V95T
notes: also called Ab31
B12: in experiment [1], the “Cell Binding hCD3 (FOB)” value worked out at 35 FOB. For the same molecule, the Kd with Human CD3εδ-Fc (human) was 0.99 nM. Besides, the “Cell Binding cCD3 (FOB)” value in experiment [2] turned out to be 82 FOB.

B13: ADI-46379 (antibody, V domains shown)
VH: B1 VH with T78A
VL: B1 VL with T59A, V95T
notes: also called Ab41
With B13, the “Cell Binding hCD3 (FOB)” value in experiment [1] was determined as 43 FOB. The same molecule registered a Kd with Human CD3εδ-Fc (human) of 1 nM. Moreover, in experiment [2], the “Cell Binding cCD3 (FOB)” value came to 105 FOB.

B14: ADI-46364 (antibody, V domains shown)
VH: B1 VH with F64L, R87G
VL: B1 VL
notes: also called Ab48
Consider B14, for which the “Cell Binding hCD3 (FOB)” value in experiment [1] is 33 FOB. Besides, the Kd with Human CD3εδ-Fc (human) came to 0.97 nM. The “Cell Binding cCD3 (FOB)” value in experiment [2] was 63 FOB.

B15: ADI-45968 (antibody, V domains shown)
VH: B1 VH with T74A
VL: B1 VL
notes: also called Ab4
Turning to B15, the “Cell Binding hCD3 (FOB)” value in experiment [1] worked out at 16 FOB. The Kd came out at 0.068 nM with Human CD3εδ-Fc (human) and 1.4 nM in experiment [3]. Further, the “Cell Binding cCD3 (FOB)” value in experiment [2] amounted to 18 FOB.

B16: ADI-46376 (antibody, V domains shown)
VH: B1 VH with F64L, R87G, L114P
VL: B1 VL with V95T
notes: also called Ab39
As to B16, the “Cell Binding hCD3 (FOB)” value in experiment [1] stood at 4 FOB. Moreover, the Kd with Human CD3εδ-Fc (human) came to 1 nM. Besides, in experiment [2], the “Cell Binding cCD3 (FOB)” value worked out at 96 FOB.

B17: ADI-45966 (antibody, V domains shown)
VH: B1 VH with T69A
VL: B1 VL with V95T
notes: also called Ab29
For B17, the “Cell Binding hCD3 (FOB)” value in experiment [1] was 14 FOB. Further, the results for the Kd (with Human CD3εδ-Fc (human); in experiment [3]) were 0.061 nM and 1.2 nM, respectively. Also, in experiment [2], the “Cell Binding cCD3 (FOB)” value is 27 FOB.

B18: ADI-46367 (antibody, V domains shown)
VH: B1 VH with T78I
VL: B1 VL with V95A
notes: also called Ab32
B18: the “Cell Binding hCD3 (FOB)” value in experiment [1] was found to be 8 FOB. The same molecule gave a Kd in the experiment with Human CD3εδ-Fc (human) of 0.95 nM. The “Cell Binding cCD3 (FOB)” value in experiment [2] turned out to be 62 FOB.

B19: ADI-46362 (antibody, V domains shown)
VH: B1 VH with L45P, V93A
VL: B1 VL
notes: also called Ab46
Consider B19, for which the “Cell Binding hCD3 (FOB)” value in experiment [1] was found to be 7 FOB. Moreover, in the experiment with Human CD3εδ-Fc (human), the Kd came out at 0.8 nM. In addition, the “Cell Binding cCD3 (FOB)” value in experiment [2] turned out to be 95 FOB.

B20: ADI-46369 (antibody, V domains shown)
VH: B1 VH with V2A, A62T
VL: B1 VL
notes: also called Ab33
Turning to B20, the “Cell Binding hCD3 (FOB)” value in experiment [1] came to 33 FOB. In addition, in the experiment with Human CD3εδ-Fc (human), the Kd worked out at 0.92 nM. In addition, in experiment [2], the “Cell Binding cCD3 (FOB)” value amounted to 71 FOB.

B21: ADI-45963 (antibody, V domains shown)
VH: B1 VH with S17P
VL: B1 VL with V95K
notes: also called Ab26
Consider B21, for which, in experiment [1], the “Cell Binding hCD3 (FOB)” value was 14 FOB. The Kd with Human CD3εδ-Fc (human) amounted to 0.069 nM; in experiment [3], 2.1 nM. Also, in experiment [2], the “Cell Binding cCD3 (FOB)” value stood at 69 FOB.

B22: ADI-45965 (antibody, V domains shown)
VH: B1 VH with T58A
VL: B1 VL with E17G
notes: also called Ab28
For the molecule B22, the “Cell Binding hCD3 (FOB)” value in experiment [1] was 33 FOB. Besides, the Kd in the experiment with Human CD3εδ-Fc (human) was 0.065 nM; in experiment [3] it was 1.4 nM. In experiment [2], the “Cell Binding cCD3 (FOB)” value was 124 FOB.

B23: ADI-45967 (antibody, V domains shown)
VH: B1 VH with T71A, A79V
VL: B1 VL with T20I, V95T
notes: also called Ab3
For B23, the “Cell Binding hCD3 (FOB)” value in experiment [1] turned out to be 40 FOB. In addition, the dissociation constant Kd worked out at 0.076 nM with Human CD3εδ-Fc (human) and 1.4 nM in experiment [3]. The “Cell Binding cCD3 (FOB)” value in experiment [2] amounted to 59 FOB.

B24: ADI-45970 (antibody, V domains shown)
VH: B1 VH with I29V
VL: B1 VL with V95K
notes: also called Ab6
B24: in experiment [1], the “Cell Binding hCD3 (FOB)” value is 53 FOB. Besides, the values for the dissociation constant (Kd) (in the experiment with Human CD3εδ-Fc (human); in experiment [3]) were 0.15 nM and 1.6 nM, respectively. In experiment [2], the “Cell Binding cCD3 (FOB)” value was 68 FOB.

B25: ADI-46371 (antibody, V domains shown)
VH: B1 VH with V2A, L45P, V93A
VL: B1 VL
notes: also called Ab35
In the case of B25, in experiment [1], the “Cell Binding hCD3 (FOB)” value stood at 47 FOB. In the experiment with Human CD3εδ-Fc (human), this molecule showed a Kd of 0.86 nM. For the same molecule, the “Cell Binding cCD3 (FOB)” value in experiment [2] came out at 121 FOB.

B26: ADI-45960 (antibody, V domains shown)
VH: B1 VH
VL: B1 VL with V89A, V95A
notes: also called Ab23
Regarding B26, the “Cell Binding hCD3 (FOB)” value in experiment [1] stood at 63 FOB. Further, the Kd in the experiment with Human CD3εδ-Fc (human) stood at 0.14 nM; in experiment [3], 1.8 nM. Further, the “Cell Binding cCD3 (FOB)” value in experiment [2] was 58 FOB.

B27: ADI-46363 (antibody, V domains shown)
VH: B1 VH
VL: B1 VL with V95T
notes: also called Ab47
B27: in experiment [1], the “Cell Binding hCD3 (FOB)” value came out at 49 FOB. Also, the Kd with Human CD3εδ-Fc (human) was found to be 0.93 nM. Besides, the “Cell Binding cCD3 (FOB)” value in experiment [2] is 129 FOB.

B28: ADI-45962 (antibody, V domains shown)
VH: B1 VH with K12E, K13E
VL: B1 VL
notes: also called Ab25
On to B28, for which the “Cell Binding hCD3 (FOB)” value in experiment [1] was found to be 18 FOB. Further, the Kd in the experiment with Human CD3εδ-Fc (human) came out at 0.14 nM; in experiment [3], 1.4 nM. For the same molecule, in experiment [2], the “Cell Binding cCD3 (FOB)” value is 46 FOB.

B29: ADI-46374 (antibody, V domains shown)
VH: B1 VH with E54N
VL: B1 VL
notes: also called Ab37
Regarding B29, in experiment [1], the “Cell Binding hCD3 (FOB)” value was 37 FOB. In the experiment with Human CD3εδ-Fc (human), this molecule displayed a Kd of 0.84 nM. For the same molecule, in experiment [2], the “Cell Binding cCD3 (FOB)” value was 29 FOB.

The values are drawn from patent US20260209352A1 (Adimab, published 2026).
